# The RNAGym collection of RNA variant scans (doi:10.1093/molbev/msab373)
# B1: Azoarcus group I ribozyme (parent)
# chain: GUGCCUUGCGCCGGGAAACCACGCAAGGGAUGGUGUCAAAUUCGGCGAAACCUAAGCGCCCGCCCGGGCGUAUGGCAACGCCGAGCCAAGCUUCGGCGCCUGCGCCGAUGAAGGUGUAGAGACUAGACGGCACCCACCUAAGGCAAACGCUAUGGUGAAGGCAUAGUCCAGGGAGUGGCGAAAGUCACACAAACCGG
# Variants of: B1
# Assay: reverse-splicing fitness (ratio to wild type); higher = more active; in vitro selection; Mg2+ level not given
# Summary of the method: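 An in vitro group I ribozyme library with randomized positions was T7-transcribed and gel-purified. In triplicate, 10 pmol RNA in EPPS pH 7.5 was reacted with 50 pmoles of a 30-nt RNA substrate for 1 h at 37 °C across several added MgCl2 levels (1–48 mM), then stopped with EDTA. Products were reverse transcribed from a substrate-complementary primer, PCR-amplified and sequenced (HiSeq 4000). Fitness is a variant's read proportion after selection over that before, normalised to wild type.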
row,Variant,reverse-splicing fitness
1,C82A A111C A120G A145C C150U U176C,0.0119
2,C82A A111C A120G A145C C169G U176A,0.0239
3,C82A A111C A120G A145C C169G U176G,0.00472
4,C82A A111C A120G A145C C169G U176C,0.0156
5,C82A A111C A120G A145U C150U C169U U176C,0.012
6,C82A A111C A120G A145U C150U C169U U176A,0.0153
7,C82A A111C A120G A145U C150U C169U U176G,0.00648
8,C82A A111C A120G A145U C150G C169A U176A,0.00941
9,C82A A111C A120G A145U C150G C169A U176G,0.00558
10,C82A A111C A120G A145U C150G C169A U176C,0.00969
11,C82A A111C A120G A145U C150A C169A U176A,0.0115
12,C82A A111C A120G A145U C150A C169A U176C,0.0113
13,C82A A111C A120G A145U C150A C169A U176G,0.00621
14,C82A A111C A120G C150U C169G U176A,0.0134
15,C82A A111C A120G C150U C169G U176C,0.0169
16,C82A A111C A120G C150U C169G U176G,0.00594
17,C82A A111C A120G A145G C150G C169G U176G,0.00603
18,C82A A111C A120G A145G C150G C169G U176A,0.00968
19,C82A A111C A120G A145G C150G C169G U176C,0.0118
20,C82A A111C A120C C150A C169A,0.0111
21,C82A A111C A120C C150A C169G,0.00949

row,Variant,reverse-splicing fitness
1,C82A A111C A120C C150A C169U,0.0133
2,C82A A111C A120C U176A,0.0134
3,C82A A111C A120C U176C,0.0216
4,C82A A111C A120C U176G,0.00722
5,C82A A111C A120G C150G C169A,0.0097
6,C82A A111C A120G C150G C169G,0.00748
7,C82A A111C A120G C150G C169U,0.00833
8,C82A A111C A120C C150G C169G,0.00682
9,C82A A111C A120C C150G C169U,0.0115
10,C82A A111C A120C C150G C169A,0.00831
11,C82A A111C A120G A145U C150G C169U U176C,0.0111
12,C82A A111C A120G A145U C150G C169U U176G,0.00542
13,C82A A111C A120G A145U C150G C169U U176A,0.00693
14,C82A A111C A120G A145C C150U,0.00926
15,C82A A111C A120G A145C C150A,0.00818
16,C82A A111C A120G A145C C150G,0.00724
17,C82A A111C A120C A145U C150U C169U U176C,0.0133
18,C82A A111C A120C A145U C150U C169U U176G,0.00824
19,C82A A111C A120C A145U C150U C169U U176A,0.0135
20,C82A A111C A120G A145C C150G C169G U176G,0.00475
21,C82A A111C A120G A145C C150G C169G U176A,0.00836

row,Variant,reverse-splicing fitness
1,C82A A111C A120G A145C C150G C169G U176C,0.00766
2,C82A A111C A120G A145C C150U C169A U176A,0.0112
3,C82A A111C A120G A145C C150U C169A U176G,0.00632
4,C82A A111C A120G A145C C150U C169A U176C,0.00619
5,C82A A111C A120C A145U C169A U176G,0.00807
6,C82A A111C A120C A145U C169A U176A,0.0132
7,C82A A111C A120C A145U C169A U176C,0.0162
8,C82A A111C A120G A145U C150A U176A,0.0139
9,C82A A111C A120G A145U C150A U176G,0.00589
10,C82A A111C A120G A145U C150A U176C,0.02
11,C82A A111C A120G A145U C150U C169G U176A,0.012
12,C82A A111C A120G A145U C150U C169G U176G,0.00522
13,C82A A111C A120G A145U C150U C169G U176C,0.014
14,C82A A111C A120C A145U C169G U176G,0.00709
15,C82A A111C A120C A145U C169G U176A,0.0151
16,C82A A111C A120C A145U C169G U176C,0.0178
17,C82A A111C A120C C150U C169A U176C,0.0126
18,C82A A111C A120C C150U C169A U176A,0.0146
19,C82A A111C A120C C150U C169A U176G,0.00849
20,C82A A111C A120G C150G C169G U176A,0.00664
21,C82A A111C A120G C150G C169G U176C,0.00493

row,Variant,reverse-splicing fitness
1,C82A A111C A120G C150G C169G U176G,0.00538
2,C82A A111C A120G A145C C150A C169A,0.00794
3,C82A A111C A120G A145C C150A C169G,0.00754
4,C82A A111C A120G A145C C150A C169U,0.00671
5,C82A A111C A120C C150U,0.0169
6,C82A A111C A120C C150G,0.0074
7,C82A A111C A120C C150A,0.0114
8,C82A A111C A120G A145G C169A U176C,0.0288
9,C82A A111C A120G A145G C169A U176A,0.0215
10,C82A A111C A120G A145G C169A U176G,0.00509
11,C82A A111C A120G A145G C150G C169U U176G,0.00784
12,C82A A111C A120G A145G C150G C169U U176A,0.0114
13,C82A A111C A120G A145G C150G C169U U176C,0.0123
14,C82A A111C A120C A145U C150U C169G U176A,0.0127
15,C82A A111C A120C A145U C150U C169G U176G,0.00815
16,C82A A111C A120C A145U C150U C169G U176C,0.015
17,C82A A111C A120G C150U U176C,0.02
18,C82A A111C A120G C150U U176G,0.00673
19,C82A A111C A120G C150U U176A,0.0116
20,C82A A111C A120G C150U C169U U176A,0.0157
21,C82A A111C A120G C150U C169U U176G,0.00631
